# Reference: PMC9165289, “Theranostic PSMA ligands with optimized backbones for intraoperative multimodal imaging and photodynamic therapy of prostate cancer” (European Journal of Nuclear Medicine and Molecular Imaging, 2022)
# Several values for one entry are separate records, joined by “and”; a condition that tells them apart may be missing. Equal values may be shown once. Read-outs that look alike come from different tables or passages of the source.
# What was measured:
# [1] = PSMA-N064 blocking experiment, ex vivo biodistribution; assay type: in vivo, BALB/c nude mice; details: male, BALB/c nude, mouse, in vivo, total radioactivity, 2 h p.i., n=5
# Method: All animal experiments were approved by the institutional Animal Welfare Committee of the Radboud University Medical Center and were conducted in accordance to the guidelines of the Revised Dutch Act on Animal Experimentation. Animal experiments were performed in 8–10 weeks old male BALB/c nude mice (Janvier). The mice were housed in individually ventilated cages (Blue line IVC, 3–5 mice per cage), under standard non-sterile conditions with cage enrichment present. There was free access to chlorophyll-free animal chow (Sniff Voer) and water. Mice were subcutaneously inoculated with 3.0 × 10^6 LS174T-PSMA cells in the right flank and 1.5 × 10^6 LS174T WT cells in the left flank (diluted in 200-µl RPMI 1640 medium). When xenografts were approximately 0.5 cm^3 (10–14 days after injection), mice were block-randomized into groups based on tumor size. The researchers were not blinded for the experimental groups.
# Five mice per group were intravenously injected with either 0.1 nmol PSMA-N064, 0.3 nmol PSMA-N064, 0.1 nmol PSMA-N064 + 10 nmol unlabeled PSMA-617 (100x excess) or PSMA-617. Ligands were labeled with 10 MBq ^111In in PBS+0.5% (w/v) BSA. For the ex vivo biodistribution four groups (one for each experimental condition) of five mice were included. Two hours p.i., all mice from all groups were euthanized by CO2/O2-asphyxiation and relevant tissues were dissected, weighed and measured for radioactivity in a gamma-counter (2480 WIZARD^2 Automatic Gamma Counter, PerkinElmer).
# PSMA = molecular target: T1, PSMA (Homo sapiens, UniProt Q04609); assay: competitive binding assay using LS174T-PSMA cells
# T1 construct: expressed in transfected cells; host or cells: LS174T colon carcinoma cells (LS174T-PSMA)
# T1 sequence (Q04609 whole entry): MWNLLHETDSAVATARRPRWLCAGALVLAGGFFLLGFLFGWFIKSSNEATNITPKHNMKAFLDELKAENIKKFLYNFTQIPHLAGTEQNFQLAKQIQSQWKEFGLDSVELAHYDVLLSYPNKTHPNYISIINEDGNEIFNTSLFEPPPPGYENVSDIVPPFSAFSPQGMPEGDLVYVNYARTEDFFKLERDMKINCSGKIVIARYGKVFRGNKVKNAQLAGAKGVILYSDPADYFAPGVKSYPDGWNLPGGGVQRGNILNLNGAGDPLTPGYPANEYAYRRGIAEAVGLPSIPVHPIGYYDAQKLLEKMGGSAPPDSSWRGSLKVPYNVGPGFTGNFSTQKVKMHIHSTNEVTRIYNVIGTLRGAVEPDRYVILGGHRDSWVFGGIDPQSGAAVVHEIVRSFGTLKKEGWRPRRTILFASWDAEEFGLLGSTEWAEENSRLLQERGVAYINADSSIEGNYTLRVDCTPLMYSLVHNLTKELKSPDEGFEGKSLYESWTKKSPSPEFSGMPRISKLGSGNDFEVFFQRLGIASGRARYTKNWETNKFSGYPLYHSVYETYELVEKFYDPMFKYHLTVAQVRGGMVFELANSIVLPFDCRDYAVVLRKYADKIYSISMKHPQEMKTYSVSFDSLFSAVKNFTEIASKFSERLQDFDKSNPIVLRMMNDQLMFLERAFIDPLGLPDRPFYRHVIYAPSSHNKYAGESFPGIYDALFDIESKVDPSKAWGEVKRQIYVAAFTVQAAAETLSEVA
# Description: Fig. 3 In vitro characterization of [^111In]In-DOTA(GA)-IRDye700DX-PSMA ligands varying in their backbone composition. a Labeling efficiency of [^111In]In-DOTA-PSMA-N01, -N02, -N03, [^111In]In-DOTAGA-PSMA-N064 and -N064inc at a specific activity of either 10 MBq/µg or 30 MBq/µg (n = 2). IC50 values of ligands as determined in competitive binding assays using LS174T-PSMA cells. b Binding and internalization of [^111In]In-DOTA-PSMA-N01, -N02, -N03, [^111In]In-DOTAGA-PSMA-N064 and -N064inc in LS174T PSMA-positive cells. Membrane binding and internalization are corrected for non-specific binding and accumulation, as determined by co-incubation with an excess of 2-PMPA (50 µg). [^111In]In-DOTA-PSMA-617 was added as a positive control. c PSMA-targeted PDT efficacy of ligands in vitro. Cell viability of LS174T-PSMA (PSMA +) and LS174T wildtype (PSMA-) cells following incubation with 30 nM of PSMA-N01, -N02, -N03, -N064, and -N064inc, after either a 100 J/cm^2 (450 mW/cm^2) radiant exposure or no light exposure (dark).
compound,measurement,setting,value
C[Si](C)(CCC[N+](CCCS(=O)(=O)[O-])(CCCS(=O)(=O)O)CCCS(=O)(=O)O)O[Si]1(O[Si](C)(C)CCC[N+](CCCS(=O)(=O)[O-])(CCCS(=O)(=O)O)CCCS(=O)(=O)O)n2c3c4ccccc4c2N=C2N=C(N=c4c5c(OCCCOC(=O)NCCCCCC(=O)NCCCC[C@H](NC(=O)CCC(C(=O)O)N6CCN(CC(=O)O)CCN(CC(=O)O)CCN(CC(=O)O)CC6)C(=O)N[C@@H](Cc6ccccc6)C(=O)N[C@@H](CCC(=O)O)C(=O)N[C@@H](CCC(=O)O)C(=O)NCCCCCC(=O)NCCCC[C@H](NC(=O)N[C@@H](CCC(=O)O)C(=O)O)C(=O)O)cccc5c(n41)=NC1=NC(=N3)c3ccccc31)c1ccccc12 (stereo partly drawn) [PSMA-N064],tissue uptake at 2 h,"[1]; iv, 0.1 nmol, 0.1 nmol, 10 MBq, i.v., read-out: Biodistribution Blood",0.2 ± 0.2 %ID/g
same,tissue uptake at 2 h,"[1]; iv, 0.1 nmol, 0.1 nmol, 10 MBq, i.v., read-out: Biodistribution Bone",0.7 ± 0.2 %ID/g
same,tissue uptake at 2 h,"[1]; iv, 0.1 nmol, 0.1 nmol, 10 MBq, i.v., read-out: Biodistribution Kidney",82.9 ± 7.8 %ID/g
same,tissue uptake at 2 h,"[1]; iv, 0.1 nmol, 0.1 nmol, 10 MBq, i.v., read-out: Biodistribution Liver",0.8 ± 0.1 %ID/g
same,tissue uptake at 2 h,"[1]; iv, 0.1 nmol, 0.1 nmol, 10 MBq, i.v., read-out: Biodistribution Muscle",0.4 ± 0.4 %ID/g
same,tissue uptake at 2 h,"[1]; iv, 0.1 nmol, 0.1 nmol, 10 MBq, i.v., read-out: Biodistribution Prostate",0.5 ± 0.2 %ID/g
same,tissue uptake at 2 h,"[1]; iv, 0.1 nmol, 0.1 nmol, 10 MBq, i.v., read-out: Biodistribution Salivary glands",0.6 ± 0.1 %ID/g
same,tissue uptake at 2 h,"[1]; iv, 0.1 nmol, 0.1 nmol, 10 MBq, i.v., read-out: Biodistribution Spleen",1.6 ± 0.4 %ID/g
same,tissue uptake at 2 h,"[1]; iv, 0.1 nmol, 0.1 nmol, 10 MBq, i.v., read-out: Biodistribution Tumor+ LS174T-PSMA",12 ± 2 %ID/g
same,tissue uptake at 2 h,"[1]; iv, 0.1 nmol, 0.1 nmol, 10 MBq, i.v., read-out: Biodistribution Tumor- LS174T",0.4 ± 0.1 %ID/g
same,tissue uptake at 2 h,"[1]; iv, 0.3 nmol, 0.3 nmol, 10 MBq, i.v., read-out: Biodistribution Blood",0.4 ± 0.3 %ID/g
same,tissue uptake at 2 h,"[1]; iv, 0.3 nmol, 0.3 nmol, 10 MBq, i.v., read-out: Biodistribution Bone",0.8 ± 0.1 %ID/g
same,tissue uptake at 2 h,"[1]; iv, 0.3 nmol, 0.3 nmol, 10 MBq, i.v., read-out: Biodistribution Kidney",64.4 ± 9.7 %ID/g
same,tissue uptake at 2 h,"[1]; iv, 0.3 nmol, 0.3 nmol, 10 MBq, i.v., read-out: Biodistribution Liver",1 ± 0.2 %ID/g
same,tissue uptake at 2 h,"[1]; iv, 0.3 nmol, 0.3 nmol, 10 MBq, i.v., read-out: Biodistribution Muscle",0.5 ± 0.3 %ID/g
same,tissue uptake at 2 h,"[1]; iv, 0.3 nmol, 0.3 nmol, 10 MBq, i.v., read-out: Biodistribution Prostate",0.6 ± 0.2 %ID/g
same,tissue uptake at 2 h,"[1]; iv, 0.3 nmol, 0.3 nmol, 10 MBq, i.v., read-out: Biodistribution Salivary glands",0.6 ± 0.2 %ID/g
same,tissue uptake at 2 h,"[1]; iv, 0.3 nmol, 0.3 nmol, 10 MBq, i.v., read-out: Biodistribution Spleen",1.9 ± 0.5 %ID/g
same,tissue uptake at 2 h,"[1]; iv, 0.3 nmol, 0.3 nmol, 10 MBq, i.v., read-out: Biodistribution Tumor+ LS174T-PSMA",12.2 ± 1.1 %ID/g
same,tissue uptake at 2 h,"[1]; iv, 0.3 nmol, 0.3 nmol, 10 MBq, i.v., read-out: Biodistribution Tumor- LS174T",0.5 ± 0.1 %ID/g
same,tissue uptake at 2 h,"[1]; 0.1 nmol + 10 nmol unlabeled PSMA-617 (block, 100x excess), read-out: Biodistribution Blood",0.2 ± 0.1 %ID/g
same,tissue uptake at 2 h,"[1]; 0.1 nmol + 10 nmol unlabeled PSMA-617 (block, 100x excess), read-out: Biodistribution Bone",0.4 ± 0.1 %ID/g
same,tissue uptake at 2 h,"[1]; 0.1 nmol + 10 nmol unlabeled PSMA-617 (block, 100x excess), read-out: Biodistribution Kidney",39.5 ± 5 %ID/g
same,tissue uptake at 2 h,"[1]; 0.1 nmol + 10 nmol unlabeled PSMA-617 (block, 100x excess), read-out: Biodistribution Liver",0.7 ± 0.2 %ID/g
same,tissue uptake at 2 h,"[1]; 0.1 nmol + 10 nmol unlabeled PSMA-617 (block, 100x excess), read-out: Biodistribution Muscle",0.1 ± 0.1 %ID/g
same,tissue uptake at 2 h,"[1]; 0.1 nmol + 10 nmol unlabeled PSMA-617 (block, 100x excess), read-out: Biodistribution Prostate",0.2 ± 0.1 %ID/g
same,tissue uptake at 2 h,"[1]; 0.1 nmol + 10 nmol unlabeled PSMA-617 (block, 100x excess), read-out: Biodistribution Salivary glands",0.4 ± 0.1 %ID/g
same,tissue uptake at 2 h,"[1]; 0.1 nmol + 10 nmol unlabeled PSMA-617 (block, 100x excess), read-out: Biodistribution Spleen",0.5 ± 0.1 %ID/g
same,tissue uptake at 2 h,"[1]; 0.1 nmol + 10 nmol unlabeled PSMA-617 (block, 100x excess), read-out: Biodistribution Tumor+ LS174T-PSMA",1 ± 0.1 %ID/g
same,tissue uptake at 2 h,"[1]; 0.1 nmol + 10 nmol unlabeled PSMA-617 (block, 100x excess), read-out: Biodistribution Tumor- LS174T",0.4 ± 0.2 %ID/g
C[Si](C)(CCC[N+](CCCS(=O)(=O)[O-])(CCCS(=O)(=O)O)CCCS(=O)(=O)O)O[Si]1(O[Si](C)(C)CCC[N+](CCCS(=O)(=O)[O-])(CCCS(=O)(=O)O)CCCS(=O)(=O)O)n2c3c4ccccc4c2N=C2N=C(N=c4c5c(OCCCOC(=O)NCCCCCC(=O)NCCCC[C@H](NC(=O)CN6CCN(CC(=O)O)CCN(CC(=O)O)CCN(CC(=O)O)CC6)C(=O)NCCCC[C@H](NC(=O)[C@H](CCC(=O)O)NC(=O)c6ccccc6)C(=O)NC[C@H]6CC[C@H](C(=O)N[C@@H](Cc7ccc8ccccc8c7)C(=O)NCCCC[C@H](NC(=O)N[C@@H](CCC(=O)O)C(=O)O)C(=O)O)CC6)cccc5c(n41)=NC1=NC(=N3)c3ccccc31)c1ccccc12 [PSMA-N03],IC50,PSMA,41.8 nM
same,IC50,PSMA; listed as -N03,< 50 nM
C[Si](C)(CCC[N+](CCCS(=O)(=O)[O-])(CCCS(=O)(=O)O)CCCS(=O)(=O)O)O[Si]1(O[Si](C)(C)CCC[N+](CCCS(=O)(=O)[O-])(CCCS(=O)(=O)O)CCCS(=O)(=O)O)n2c3c4ccccc4c2N=C2N=C(N=c4c5c(OCCCOC(=O)NCCCCCC(=O)NCCCC[C@H](NC(=O)CN6CCN(CC(=O)O)CCN(CC(=O)O)CCN(CC(=O)O)CC6)C(=O)NCCCC[C@H](NC(=O)[C@H](CCC(=O)O)NC(=O)c6ccccc6)C(=O)NCc6ccc(C(=O)N[C@@H](Cc7ccc8ccccc8c7)C(=O)NCCCC[C@H](NC(=O)N[C@@H](CCC(=O)O)C(=O)O)C(=O)O)cc6)cccc5c(n41)=NC1=NC(=N3)c3ccccc31)c1ccccc12 [PSMA-N01],IC50,PSMA,44.8 nM and < 50 nM
